# Results: patent publication US20090221680, “Aptamers that bind thrombin with high affinity” (published 2009)
# Molecular target: thrombin (alpha-thrombin) (Homo sapiens, UniProt P00734;P00734 P00734:315-363,P00734:364-622)
# Assay: filter; 10 nM thrombin
row,Binder,binding signal
1,TCCCACGGTCCTCACCTAGGATGGTTAGGGTGGTGGCTGAGGATCGATC (ssDNA) [AMX(395)_G2],33.1 % bound
2,TCCCGCAATCGGTACTCAGGAGGATGGTTGGGGTGGCTGAGGATCGATC (ssDNA) [AMX(395)_B5],17.1 % bound
3,TCCCGACTTCGATTACTCAGGGGTGGCTGTGGGTGGCTGAGGATCGATC (ssDNA) [AMX(395)_E4],24 % bound
4,TCCCGGTCGTATTAGTGTGGGTGGTGTAGGGTGGTGGCTGAGGATCGATC (ssDNA) [AMX(395)_E11],33.7 % bound
5,TCCCGTAATCGAGCCTGGTATTGTTGGCCTGGGTGGCTGAGGATCGATC (ssDNA) [AMX(395)_A11],35.8 % bound
6,TCCCGGTAGCGATCCAGAGAGGGATGGGGTGGGTGGCTGAGGATCGATC (ssDNA) [AMX(395)_H9],9.61 % bound
7,TCCCGAGTGTCATATCATCAGAGGTTGGAGTGGGTGGCTGAGGATCGATC (ssDNA) [AMX(395)_D5],13.4 % bound
8,TCCTATCGATACGGGGTCTTCTATTGGGTCGGGGTGGCTGAGGATCGATC (ssDNA) [AMX(395)_E2],6.51 % bound
9,TCCCATGATCGTCAGATTCAGGGATGGTGTGGGTGGCTGAGGATCGATC (ssDNA) [AMX(395)_E8],21.3 % bound
10,TCCCAGAGCGGAAATCCTCAGGGGTGGGGTGGGTGGCTGAGGATCGATC (ssDNA) [AMX(395)_G11],21.9 % bound
11,TCCCATAGTATCGAGCCGATTGGATGGTCTGGGTGGCTGAGGATCGATC (ssDNA) [AMX(395)_F3],6.29 % bound
12,TCCCGGTCGAGTCCTCACGAAGGGTTGGGAGGGTGGCTGAGGATCGATC (ssDNA) [AMX(395)_E7],9.12 % bound

# Molecular target: T1, thrombin (endogenous, clotting assay in plasma or whole blood) (Homo sapiens, UniProt P00734;P00734 P00734:328-363,P00734:364-622)
# Assay: inhibition; PT at 10 uM
row,Binder,activity
1,TCCCGAGCGATACTGTCTAGGTTGGGTAGGGTGGTGGCTGAGGATCGATC (ssDNA) [AMX(453)_F7],28.6 s
2,TCCCGAGCGATATTGTCTAGGTTGGGTAGGGTGGTGGCTGAGGATCGATC (ssDNA) [AMX(453)_F11],65.8 s
3,TCCCATCGATCTGGGGTAGTTTTATTGGGTCGGGTGGCTGAGGATCGATC (ssDNA) [AMX(453)_B10],24.8 s
4,TCCCATCGATCTGGGGTAGTTTTATTGGGTTGGGTGGCTGAGGATCGATC (ssDNA) [AMX(454)_H3],35.4 s
5,TCCCTGCTTGTCGATATTTTAGGGTTGGTGTGGGTGGCTGAGGATCGATC (ssDNA) [AMX(454)_D11],43.4 s
6,TCCTGATTGATCTGAGGGGTATTGTTGGCGTGGGTGGCTGAGGATCGATC (ssDNA) [AMX(453)_C10],104 s
7,TCCCTGCATCGAGCCTCTATGGGATGGTTTGGGTGGCTGAGGATCGATC (ssDNA) [AMX(454)_F9],25 s
8,ATCCCAATGTTGAGACGAGTAGGTGTGGGTAGGGTGGCTGAGGATCGATC (ssDNA) [AMX(453)_A9],29.3 s
9,TCCCATGATCGTTAGATTCAGGGATGGTGTGGGTGGCTGAGGATCGATC (ssDNA) [AMX(453)_G5],29.3 s
10,TCCCTGGTTTCGATCTGTTTTGGTTGGTCTGGGTGGCTGAGGATCGATC (ssDNA) [AMX(454)_B12],21.9 s
11,CCCGACTGATTCTTACCTTAGGGATGGTGTGGGTGGCTGAGGATCGATC (ssDNA) [AMX(454)_B9],32 s

# Molecular target: T1, thrombin (endogenous, clotting assay in …)
# Assay: inhibition; PT at 10 uM
# Remark: another data set of the same source
row,Binder,activity
1,ACTGCCTAGGTTGGGTAGGATGGTGGCAGT (ssDNA) [ARC2169.4],53.8 s
2,ACTGCATAGGTTGGGTAGGGTGGTGGCAGT (ssDNA) [ARC2169.7],300 s
3,ACTGCATAGGTTGGGTAGGGTGGTTGCAGT (ssDNA) [ARC2169.6],300 s
4,ACTGCATAGGTTGGGTAGGGTGGTGCAGT (ssDNA) [ARC2169.8],28.7 s
5,ACTGCCTAGGGTGGGTAGGGTGGTGGCAGT (ssDNA) [ARC2169.2],300 s
6,ACTGCCTAGGATGGGTAGGGTGGTGGCAGT (ssDNA) [ARC2169.1],300 s

# Molecular target: T1, thrombin (endogenous, clotting assay in …)
# Assay: inhibition; ACT at 10 uM
row,Binder,activity
1,ACTGCCTAGGTTGGTGTGGTTGGTGGCAGT (ssDNA) [ARC2184],368 s
2,ACCTCAGGGATGGTGTGGGTGGCTGAGGT (ssDNA) [ARC2173],415 s
3,TACCTCAGGGATGGTGTGGGTGGCTGAGGTA (ssDNA) [ARC2174],416 s
4,TAACTGCCTAGGTTGGGTAGGGTGGTGGCAGTTA (ssDNA) [ARC2179],462 s
5,GACTACCTCAGGGATGGTGTGGGTGGCTGAGGTAGTC (ssDNA) [ARC2177],401 s
6,CCTCAGGGATGGTGTGGGTGGCTGAGGTTTTTT (ssDNA) [ARC2186],408 s
7,CTACCTCAGGGATGGTGTGGGTGGCTGAGGTAG (ssDNA) [ARC2175],392 s
8,CCTCAGGGATGGTGTGGGTGGCTGAGGTTT (ssDNA) [ARC2185],384 s
9,ACTAACTGCCTAGGTTGGGTAGGGTGGTGGCAGTTAGT (ssDNA) [ARC2181],478 s
10,CTAACTGCCTAGGTTGGGTAGGGTGGTGGCAGTTAG (ssDNA) [ARC2180],516 s
11,GACTAACTGCCTAGGTTGGGTAGGGTGGTGGCAGTTAGTC (ssDNA) [ARC2182],518 s
12,AACTGCCTAGGTTGGGTAGGGTGGTGGCAGTT (ssDNA) [ARC2178],429 s
13,CCTCAGGGTTGGTGTGGTTGGCTGAGG (ssDNA) [ARC2183],354 s
14,ACTACCTCAGGGATGGTGTGGGTGGCTGAGGTAGT (ssDNA) [ARC2176],394 s

# Molecular target: T1, thrombin (endogenous, clotting assay in …)
# Assay: inhibition; ACT at 10 uM aptamer
row,Binder,activity
1,TTTTTTCCTCAGGGATGGTGTGGGTGGCTGAGG (ssDNA) [ARC2188],426 s
2,TTTCTGCCTAGGTTGGGTAGGGTGGTGGCAGTTT (ssDNA) [ARC2195],438 s
3,TTTCCTCAGGGATGGTGTGGGTGGCTGAGGTTT (ssDNA) [ARC2189],410 s
4,TTTCTGCCTAGGTTGGGTAGGGTGGTGGCAG (ssDNA) [ARC2193],545 s
5,CTGCCTAGGTTGGGTAGGGTGGTGGCAGTTT (ssDNA) [ARC2191],453 s
6,CTGCCTAGGTTGGGTAGGGTGGTGGCAGTTTTTT (ssDNA) [ARC2192],423 s
7,TTTTTTCTGCCTAGGTTGGGTAGGGTGGTGGCAG (ssDNA) [ARC2194],462 s
8,TTTTTTCCTCAGGGATGGTGTGGGTGGCTGAGGTTTTTT (ssDNA) [ARC2190],389 s
9,TTTTTTCTGCCTAGGTTGGGTAGGGTGGTGGCAGTTTTTT (ssDNA) [ARC2196],441 s
